B1: ELF3 (parent)
chain: LSKEYWDCLEGKKSKHAPRGTHLW

Variants of: B1
Test: protein stability index of a GFP-peptide fusion (GPS, HEK-293T) (PSI 1-6); higher = more stable
Details: c terminus: a fixed tail appended
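Further: lentivirally expressed fusions sorted by FACS into six bins by GFP to DsRed ratio, PSI derived from sequencing read proportions per bin multiplied by bin number.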

Variant	protein stability index
LSKEYWYCLEGKKSKHAPRGTHLW [D7Y]	2.29
LSKEYWWCLEGKKSKHAPRGTHLW [D7W]	1.89
LSKEYWDCLEKKKSKHAPRGTHLW [G11K]	2.97
LSKEYWDCLETKKSKHAPRGTHLW [G11T]	2.98
LSKEYWDCLEWKKSKHAPRGTHLW [G11W]	1.82
LSKEYWDCLEMKKSKHAPRGTHLW [G11M]	1.94
LSKEYWDCLECKKSKHAPRGTHLW [G11C]	2.27
LSKEYWDCLEEKKSKHAPRGTHLW [G11E]	3.29
LSKEYWDCLENKKSKHAPRGTHLW [G11N]	3.48
LSKEYWDCLESKKSKHAPRGTHLW [G11S]	3.5
LSKEYWDCLELKKSKHAPRGTHLW [G11L]	2.71
LSKEYWDCLEPKKSKHAPRGTHLW [G11P]	2.89
LSKEYWDCLEAKKSKHAPRGTHLW [G11A]	2.91
LSKEYWDCLEFKKSKHAPRGTHLW [G11F]	2.43
LSKEYWDCLEHKKSKHAPRGTHLW [G11H]	2.17
LSKEYWDCLEDKKSKHAPRGTHLW [G11D]	3.19
LSKEYWDCLEYKKSKHAPRGTHLW [G11Y]	2.58
LSKEYWDCLEVKKSKHAPRGTHLW [G11V]	2.2
LSKEYWDCLERKKSKHAPRGTHLW [G11R]	3.26
LSKEYWDCLEQKKSKHAPRGTHLW [G11Q]	2.69
LSKEYWDCLEIKKSKHAPRGTHLW [G11I]	2.29
LSKEYWDCLEGKKVKHAPRGTHLW [S14V]	2.94
LSKEYWDCLEGKKYKHAPRGTHLW [S14Y]	3.48
LSKEYWDCLEGKKIKHAPRGTHLW [S14I]	2.68

Variant	protein stability index
LSKEYWDCLEGKKKKHAPRGTHLW [S14K]	3.08
LSKEYWDCLEGKKCKHAPRGTHLW [S14C]	2.1
LSKEYWDCLEGKKHKHAPRGTHLW [S14H]	2.5
LSKEYWDCLEGKKMKHAPRGTHLW [S14M]	2.24
LSKEYWDCLEGKKTKHAPRGTHLW [S14T]	3.13
LSKEYWDCLEGKKRKHAPRGTHLW [S14R]	2.92
LSKEYWDCLEGKKDKHAPRGTHLW [S14D]	4.18
LSKEYWDCLEGKKAKHAPRGTHLW [S14A]	2.81
LSKEYWDCLEGKKWKHAPRGTHLW [S14W]	3.31
LSKEYWDCLEGKKGKHAPRGTHLW [S14G]	2.77
LSKEYWDCLEGKKQKHAPRGTHLW [S14Q]	2.71
LSKEYWDCLEGKKFKHAPRGTHLW [S14F]	1.99
LSKEYWDCLEGKKNKHAPRGTHLW [S14N]	2.96
LSKEYWDCLEGKKPKHAPRGTHLW [S14P]	2.94
LSKEYWDCLEGKKEKHAPRGTHLW [S14E]	3.16
LSKEYWDCLEGKKLKHAPRGTHLW [S14L]	2.19
LSKEYWDCLEGPKSKHAPRGTHLW [K12P]	2.96
LSKEYWDCLEGEKSKHAPRGTHLW [K12E]	3.21
LSKEYWDCLEGVKSKHAPRGTHLW [K12V]	2.23
LSKEYWDCLEGRKSKHAPRGTHLW [K12R]	2.35
LSKEYWDCLEGQKSKHAPRGTHLW [K12Q]	2.99
LSKEYWDCLEGHKSKHAPRGTHLW [K12H]	2.52
LSKEYWDCLEGWKSKHAPRGTHLW [K12W]	1.54
LSKEYWDCLEGNKSKHAPRGTHLW [K12N]	3.68

Variant	protein stability index
LSKEYWDCLEGYKSKHAPRGTHLW [K12Y]	1.88
LSKEYWDCLEGIKSKHAPRGTHLW [K12I]	2.26
LSKEYWDCLEGMKSKHAPRGTHLW [K12M]	2.53
LSKEYWDCLEGGKSKHAPRGTHLW [K12G]	2.58
LSKEYWDCLEGAKSKHAPRGTHLW [K12A]	2.54
LSKEYWDCLEGTKSKHAPRGTHLW [K12T]	2.43
LSKEYWDCLEGSKSKHAPRGTHLW [K12S]	3.38
LSKEYWDCLEGDKSKHAPRGTHLW [K12D]	3.4
LSKEYWDCLEGFKSKHAPRGTHLW [K12F]	2.71
LSKEYWDCLEGLKSKHAPRGTHLW [K12L]	2.06
LSKEYWDCLEGCKSKHAPRGTHLW [K12C]	1.97
LSKEYWDCLEGKKSKCAPRGTHLW [H16C]	2.64
LSKEYWDCLEGKKSKSAPRGTHLW [H16S]	2.52
LSKEYWDCLEGKKSKGAPRGTHLW [H16G]	2.88
LSKEYWDCLEGKKSKPAPRGTHLW [H16P]	2.65
LSKEYWDCLEGKKSKTAPRGTHLW [H16T]	3.43
LSKEYWDCLEGKKSKQAPRGTHLW [H16Q]	2.86
LSKEYWDCLEGKKSKMAPRGTHLW [H16M]	2.3
LSKEYWDCLEGKKSKWAPRGTHLW [H16W]	2.24
LSKEYWDCLEGKKSKYAPRGTHLW [H16Y]	3.54
LSKEYWDCLEGKKSKEAPRGTHLW [H16E]	3.14
LSKEYWDCLEGKKSKDAPRGTHLW [H16D]	3.25
LSKEYWDCLEGKKSKNAPRGTHLW [H16N]	3.2
LSKEYWDCLEGKKSKKAPRGTHLW [H16K]	3.05

Variant	protein stability index
LSKEYWDCLEGKKSKIAPRGTHLW [H16I]	2.87
LSKEYWDCLEGKKSKFAPRGTHLW [H16F]	2.64
LSKEYWDCLEGKKSKRAPRGTHLW [H16R]	2.4
LSKEYWDCLEGKKSKVAPRGTHLW [H16V]	2.94
LSKEYWDCLEGKKSKLAPRGTHLW [H16L]	2.68
LSKEYWDCLEGKKSKAAPRGTHLW [H16A]	2.72
LSKEYWDCLEGKKSCHAPRGTHLW [K15C]	2.29
LSKEYWDCLEGKKSHHAPRGTHLW [K15H]	2.52
LSKEYWDCLEGKKSYHAPRGTHLW [K15Y]	1.83
LSKEYWDCLEGKKSDHAPRGTHLW [K15D]	3
LSKEYWDCLEGKKSFHAPRGTHLW [K15F]	2.74
LSKEYWDCLEGKKSQHAPRGTHLW [K15Q]	2.87
LSKEYWDCLEGKKSEHAPRGTHLW [K15E]	2.77
LSKEYWDCLEGKKSSHAPRGTHLW [K15S]	3.04
LSKEYWDCLEGKKSVHAPRGTHLW [K15V]	2.64
LSKEYWDCLEGKKSMHAPRGTHLW [K15M]	3.18
LSKEYWDCLEGKKSPHAPRGTHLW [K15P]	2.53
LSKEYWDCLEGKKSWHAPRGTHLW [K15W]	2.93
LSKEYWDCLEGKKSLHAPRGTHLW [K15L]	2.16
LSKEYWDCLEGKKSNHAPRGTHLW [K15N]	2.79
LSKEYWDCLEGKKSAHAPRGTHLW [K15A]	2.86
LSKEYWDCLEGKKSTHAPRGTHLW [K15T]	3.26

Source: the supplement of paper PMC10567573
